Measurements taken from the supplement of paper PMC11865577.

Each sequence was assayed on TO-N3-2 (biotin conjugate) (assay: pull-down binding Z-score (relative to library population); higher = stronger binding). Details: RNA library: Library-2.
In short: (§1)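 Heat-folded RNA library (1 μg, Cy5 or Cy3 end label, phosphate/NaCl/KCl buffer) was captured for 60 min at 25 °C on streptavidin beads displaying 100 pmol of biotin-conjugated small molecule, then washed three times. The bound fraction, eluted in hot SDS, was hybridised to a DNA barcode microarray at 55.5 °C for 20 h. Z-scores for binding were taken against the library mean and standard deviation after beads-only subtraction and trimmed averaging of replicate barcoded probes.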

| Sequence | pull-down binding Z-score |
| --- | --- |
| CACGAGAUACCAGUGUGCACUUGUG [hsa-mir-542] | 0.103 |
| CACGAGAUUGGGUUGUGCAGAGGCUGACACUUG [hsa-mir-5004] | 0.63 |
| CACGCAUUUGCUUUACUUGCAAUGAUUAUA [hsa-mir-300] | 0.472 |
| CACGCCGCGCCGCCGGGUCCCUCCUCCCCGGAGAGGCUG [hsa-mir-4674] | 1.56 |
| CACUAAUGUGAUUAAUGUUGUUGUG [hsa-mir-3657] | -0.402 |
| CACUACAAGAAGAAUGUAGUUGUG [hsa-mir-19a] | 0.739 |
| CACUCAGGCAGUGCCAUGAGC [hsa-mir-6811] | 0.422 |
| CACUCAGUAAAUAUUUGUUGAGUG [hsa-mir-1271] | -1.18 |
| CACUCCCGGGAUCCCCAGGGAC [hsa-mir-3176] | 0.68 |
| CACUCCCGUGCUUGUCCGAGGAGGGAGG [hsa-mir-149] | 2.78 |
| CACUCUCCCUAAUGGGGCUGAAGACAGCUCAGGGGCAGGGUG [hsa-mir-4472-1] | 0.191 |
| CACUGAUUCAGUAAAAUACUCAGUG [hsa-mir-891a] | -1.35 |
| CACUGCAGUUACCCUCCCCUCGGCGUUACUGAGCACUG [hsa-mir-637] | 0.948 |
| CACUUUCUGCUCUCUGGUGAAAGUG [hsa-mir-371a] | -0.309 |
| CAGACAAUAUAGCUGAGUUUGUCUG [hsa-mir-215] | -1.03 |
| CAGACCAUGCCACAUCCGUCUG [hsa-mir-7152] | -0.334 |
| CAGACGGCUUUCUCUCCGAAUGUCUG [hsa-mir-2276] | -0.639 |
| CAGACUCUG [hsa-mir-4326] | -0.0772 |
| CAGACUGUCUUCCCAAAUAGCCUG [hsa-mir-4772] | -0.223 |

| Sequence | pull-down binding Z-score |
| --- | --- |
| CAGAGAUGAAAUUGGGACUCCUCU [hsa-mir-7157] | 0.835 |
| CAGAGCUGCAGCUGCUCCACCCUG [hsa-mir-6730] | 1.42 |
| CAGAGGCAUCGGGUCAG [hsa-mir-4746] | 1.35 |
| CAGAGGCUGGCUUUCCAAAACUCUG [hsa-mir-1913] | 0.235 |
| CAGAGGGAGGCCAAGAAGACCUCUG [hsa-mir-4793] | 0.354 |
| CAGAGGGGCUGGCAGUACUGCUCUG [hsa-mir-4649] | 1.22 |
| CAGAGGUCCCACAGCAGGGCUGGAAAGCACACCUGUGGGACUUCUG [hsa-mir-3922] | -0.164 |
| CAGAGUGGGCUCACCUCUCGCCCACACUG [hsa-mir-6760] | -0.38 |
| CAGAGUGUGCAUGGCAGGCU [hsa-mir-7156] | 0.86 |
| CAGAGUUCCCUUCUUGUGAGCUCAG [hsa-mir-6733] | 0.42 |
| CAGAUACUUUUUAAAAUUUGUUUGAGUUGAGGCAGAUUAAAUAUCUG [hsa-mir-4742] | -0.673 |
| CAGCACUGAGCAGGCAGUGUUGU [hsa-mir-4288] | 0.42 |
| CAGCAGCAGCAGCAGCAGCAGCAGCAGCAGCAGCAGCAGCAGCAGCAG [r(CAG)16] | 1.29 |
| CAGCCAUGACCUGACCUUCUGUCUG [hsa-mir-4677] | 0.513 |
| CAGCCCCGUGUGUUGAGGAAGGAAGG [hsa-mir-940] | 1.95 |
| CAGCCCGUGGUGGGG [hsa-mir-3619] | 0.751 |
| CAGCCCUGCACUGAAC [hsa-mir-614] | 1.39 |
| CAGCCUGGGGCAUCGGUUG [hsa-mir-5572] | 1.02 |

The sequences below were run on TO-N3 (biotin conjugate) in the same assay as above. Details: RNA library: Library-2.
In short: as §1

| Sequence | pull-down binding Z-score |
| --- | --- |
| AUUUGCCAUCACCUUUACCUUUAAUGGCAAAA [hsa-mir-548av] | -0.188 |
| AUUUUCACUUAAU [hsa-mir-302f] | -0.27 |
| CAAAACUCCGUACAUUGCUAUUUUGC [hsa-mir-3064] | -0.39 |
| CAAACCGGACCUGAGCGUUUUG [hsa-mir-375] | 1.08 |
| CAAAGACCAGAACUUAAUGGUCUCUG [hsa-mir-4490] | -0.888 |
| CAAAUCGACUGUCCAAUGGAUUUG [hsa-mir-133a-2] | -0.674 |
| CAAAUCGCCUCUUCAAUGGAUUUG [hsa-mir-133a-1] | 0.0594 |
| CAACAGUUCUGUAGCGCAAUUGUG [hsa-mir-203a] | 0.622 |
| CAACUACUCAGGAGGCUG [hsa-mir-566] | 0.0834 |
| CAAGAGGUGUGAGCCACACACACGCCUGGCCUCCUG [hsa-mir-5699] | 0.813 |
| CAAGCACACAGGGCCUGGGACUAGCAUG [hsa-mir-4728] | 0.993 |
| CAAGGAAGAGUCACAGUCUCUUCCUUG [hsa-mir-659] | -0.699 |
| CAAGGGCUCUACUGUCCUUUCAGGAGAGCCCUUG [hsa-mir-4776-2] | -0.597 |
| CAAGGGCUCUCCUGAAAGGACAGUAGAGCCCUUG [hsa-mir-4776-1] | 1.18 |
| CAAGUAAAAGGAAUUUUCAUUUUCCAGCCCCUAAUUG [hsa-mir-6739] | -0.811 |
| CAAGUCCGUCUUCCUGAGAGGUUUG [hsa-mir-133b] | -0.0806 |
| CAAGUUAUCACUGAGCGACUUC [hsa-mir-4664] | -0.349 |
| CAAUAGUAAAAAGACAACCUGUUG [hsa-mir-3133] | -0.651 |
| CAAUCACAUGUAAUUAGGUGUGAUUG [hsa-mir-510] | -1.09 |
| CAAUCAUGUAUAACUAAAUUUGAUUG [hsa-mir-514a-2_514a-3] | -1.55 |
| CAAUCAUGUAUAAUUAAAUUUGAUUG [hsa-mir-514a-1] | -0.511 |
| CAAUCAUGUGUAAUUAGAUAUGAUUG [hsa-mir-514b] | -1.38 |
| CAAUGAAGACAUGAAGACCCAAUGUCUUCAUUG [hsa-mir-4529] | -1.17 |
| CAAUUUGAGACCAAU [hsa-mir-1285-2] | -0.0272 |
| CACAAAUAUGGCUCUUUGUG [hsa-mir-4474] | -0.809 |
| CACAAGACUAGGCUUCCCUGUG [hsa-mir-3152] | 0.13 |
| CACAAUAUUUAGGACAACAAUAUU [hsa-mir-1302-6] | -0.362 |
| CACACACAAUCACCAUGUG [hsa-mir-3118-1] | -0.942 |

| Sequence | pull-down binding Z-score |
| --- | --- |
| CACACACAAUCACCGUGUG [hsa-mir-3118-2_3118-3_3118-4] | -0.218 |
| CACACAUACAUAUAUAUAUGUUUG [hsa-mir-3149] | 0.379 |
| CACACGCUUUAUUUGUGCCGUUUG [hsa-mir-758] | -0.164 |
| CACACUGGUGAGGUAACAGGAUCCGGUG [hsa-mir-182] | 0.38 |
| CACAGAGUAAGCAUCAAUAGCAUUGGCAAGUUGAACUGAGCUGUC [hsa-mir-6895] | 0.466 |
| CACAGUUCUGG [hsa-mir-761] | 0.102 |
| CACCAAAGGGUUAAGGGUUUGCUCUGGAG [hsa-mir-4653] | 0.124 |
| CACCAGCCAGGCAUUGCUCAGCCCGUUUCCCUCUGGGGGAGCAAGGAGUGGUGCUGGGUUUGUC [hsa-mir-593] | 1.15 |
| CACCUCCCGGCCCGGAGCUG [hsa-mir-4734] | -0.0704 |
| CACGAGAUACCAGUGUGCACUUGUG [hsa-mir-542] | -0.441 |
| CACGAGAUUGGGUUGUGCAGAGGCUGACACUUG [hsa-mir-5004] | -0.0226 |
| CACGCAUUUGCUUUACUUGCAAUGAUUAUA [hsa-mir-300] | 0.583 |
| CACGCCGCGCCGCCGGGUCCCUCCUCCCCGGAGAGGCUG [hsa-mir-4674] | 0.606 |
| CACUAAUGUGAUUAAUGUUGUUGUG [hsa-mir-3657] | -0.611 |
| CACUACAAGAAGAAUGUAGUUGUG [hsa-mir-19a] | -0.154 |
| CACUCAGGCAGUGCCAUGAGC [hsa-mir-6811] | 0.408 |
| CACUCAGUAAAUAUUUGUUGAGUG [hsa-mir-1271] | -0.674 |
| CACUCCCGGGAUCCCCAGGGAC [hsa-mir-3176] | 0.25 |
| CACUCCCGUGCUUGUCCGAGGAGGGAGG [hsa-mir-149] | 2.63 |
| CACUCUCCCUAAUGGGGCUGAAGACAGCUCAGGGGCAGGGUG [hsa-mir-4472-1] | -0.273 |
| CACUGAUUCAGUAAAAUACUCAGUG [hsa-mir-891a] | -1.09 |
| CACUGCAGUUACCCUCCCCUCGGCGUUACUGAGCACUG [hsa-mir-637] | 0.603 |
| CACUUUCUGCUCUCUGGUGAAAGUG [hsa-mir-371a] | -0.0106 |
| CAGACAAUAUAGCUGAGUUUGUCUG [hsa-mir-215] | -1.24 |
| CAGACCAUGCCACAUCCGUCUG [hsa-mir-7152] | -0.651 |
| CAGACGGCUUUCUCUCCGAAUGUCUG [hsa-mir-2276] | -1.12 |
| CAGACUCUG [hsa-mir-4326] | -0.0561 |
